Data set [1] can be described thus: Whole animal surface fluorescence after IV injection (elimination). It is filed as in vivo, mouse. As to conditions: bladder at 20 minutes, vs (DOTA)Lys-Cys(IR-783) peptide. An excerpt:
(§1) A Kodak FX multispectral imaging system was used (Carestream Molecular Imaging, Rochester, N.Y.). Excitation at multiple wavelengths (620, 650, 690, 710, 720, 730, 750 and 760 nm) with the emission at 830 nm was setup for IR-783 spectrum; Excitation at multiple wavelengths (420, 440, 460, 480, 510, 520, 530, and 540 nm) with the emission at 600 nm was setup for Cy3 spectrum; Excitation at multiple wavelengths (450, 470, 510, 520, 530, 540, 550, 570, and 590 nm) with the emission at 700 nm was setup for mCherry; with manufacturer's software to separate (unmix) the IR-783 spectrum, Cy3 spectrum, or mCherry spectrum from skin autofluorescence and chlorophyll fluorescence from food. X-ray images were taken after fluorescence images. Animals were anesthetized with 2% isoflurane with O2 flow (2 I/min) during imaging.

Data set [2] is described as follows: PN and peptide size (volume, diameter) by FPLC gel filtration (Superdex 200, globular protein standards). It is filed as physicochemical. Particulars: for Volume FPLC (diameter) / Volume FPLC: Table 5; for Volume FPLC (diameter): converted from globular protein equivalent MW; for Volume FPLC: globular protein equivalent molecular weight. In a few lines: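 Superdex 200 size exclusion in 0.05 M sodium phosphate, 0.15 M NaCl, 0.1% Tween, pH 7.2 at 0.8 ml/min, calibrated with globular protein standards via Kav. Apparent globular-equivalent molecular weight converted to diameter using radius (nm)=0.066M^1/3.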
Background: SEC sorts molecules by how far they enter the pores of the column.

A short description of data set [3]: Blood half-life from serum fluorescence after tail injection. In kind it is in vivo. As to conditions: mouse, IV; single decay constant fit. The protocol: Using these procedures and PEG's of different molecular weights, PEG-like NIR fluorochromes of different molecular weights, volumes and pharmacokinetics were synthesized, with results summarized in Table 3B. Blood half-lives were determined by tail injection into mice and measuring serum fluorescence as a function of time. Data (fluorescence versus time) were fit to a single decay constant equation to yield blood half-lives. Human pharmacokinetics will be far slower than that of mice.

Data set [4] is described as follows: Circulating form of PN's (FPLC of serum after IV injection). In kind it is in vivo, mouse. As to conditions: nude mice, 20 nmoles. The procedure: 20 nmoles of PN(783)4.3, PN(783)6.1, or PN(783)10.0 was injected (IV, tail vein) into nude mice (female; 25-30 g; 6-8 weeks old; nu/nu). At the indicated time, 50 μl of blood was collected with microhematocrit capillary tube (Fisher Scientific) from the tail, and transferred to Eppendorf microcentrifuge tube with anticoagulant (EDTA) coating (Fisher Scientific). Tubes were centrifuged (5000 rpm for 5 minutes), and the supernatant was injected to the FPLC, a ÄKTA Purifier 10 with Superdex™ 200 10/300GL column.

The subject of data set [5] is HT-29 tumor. It is filed as in vivo, mouse.
Text: as §1
Female nude mice (25-30 g; 6-8 weeks old; nu/nu) were anesthetized with 2% isoflurane/O2. HT-29 or mCherry-HT-29 cells were detached, pelleted and 200 μl of cell suspension containing 10^6 cells in Matrigel (BD Bioscience) was injected subcutaneously into right and left shoulders. Tumors were allowed to grow 5-7 days before experiments.
The imaging was performed by Triumph II multimodality imaging system (Gamma Medica Ideas, LLC) comprising XSPECT with four CZT (Cadmium Zink Telluride) detectors and X-O CT with CMOS detector. SPECT data of the ^111In-labeled compound was acquired for 60 minutes using 5-pinhole collimators and processed with 3D-OSEM algorithm using 4 subsets and 5 iterations. 3-dimensional CT data was processed with modified Feldkamp software. […] Animals were under isoflurane anesthesia (1.5%) with O2 flow (1.5 l/min) and kept warm during the imaging with a heated animal bed.
150 μl of ^111In-labeled PN(783)10 (400 μCi, ˜2 nmole) were injected to tumor-bearing animals by tail vein (IV). 24 hours or 48 hours later, animals were sacrificed, and tumors, blood, liver, spleen, stomach, kidneys, small intestine, lung, heart, tail, fat, and muscle, were collected. Radioactivity was measured with Perkin Elmer, Wizard2 2480 gamma counter.

2 substances from patent US20150258217A1, “Methods of Synthesizing and Using Peg-Like Fluorochromes” (THE GENERAL HOSPITAL CORPORATION, priority 2012, published 2015) can be followed below.

Take “(DOTA)Lys(PEG5K)-Cys(IR-783) [PN(783)4.3]”: the “fluorochrome elimination after IV injection” value in data set [1] is recorded as “enhanced fluorochrome elimination”. In addition, the “PEG-based expansion of volume” value in data set [2] (5 kDa PEG vs non-PEGylated peptide, (4.3/1.1)) turned out to be 59 fold. The substance further yielded a diameter in data set [2] (FPLC gel filtration) of 4.3 nm. Further, in data set [2] (Table 3B, dipeptides), the “Molecular Volume FPLC” value is recorded as 35.2 kDa. In data set [2], the “Volume FPLC (diameter)” value worked out at 4.3 nm and the “Volume FPLC” value was determined as 35.2 kDa. The same substance gave a Serum half-life in data set [3] of 13.1 min. For the same substance, the “circulating form after injection (FPLC elution vs pre-injection sample)” value in data set [4] is “identical for pre-injection samples and for sera from injected mice”.

As for “(DOTA)Lys(PEG30K)-Cys(IR-783) [PN(783)10.0]”, in data set [2], the “Volume FPLC (diameter)” value turned out to be 10.0 nm and the “Volume FPLC” value worked out at 435.4 kDa. The “tumor retention (EPR) by SPECT and surface fluorescence” value in data set [5] (HT29 tumor, 48 hours) is “retained in the tumor”. Besides, in data set [5] (mouse, in vivo), the “injected dose in the blood” value is on record as ~7.5% and the “injected dose in the liver” value is “less than 5%”. Further, the “circulating form after injection (FPLC elution vs pre-injection sample)” value in data set [4] is on record as “circulates at its pre-injection size”.
